{"source": "patent US9587002B2", "about": "“Sequence of nucleotides and peptides GSE 24.2 of dyskerin, which can induce telomerase activity, method for obtaining same, therapeutic compositions and applications thereof” (CONSEJO SUPERIOR DE INVESTIGACIONES CIENTIFICAS, priority 2005, dated 2017)", "molecules": {"B1": {"name": "GSE 24.2: 165-pb cDNA fragment (nucleotides 268 to 433) of human dyskerin, SEQ ID NO1, encoding peptide SEQ ID NO2, expressed from pLNCX plasmid (nucleic acid, listed as Homo sapiens)", "DNA": "GGTTTCATTAATCTTGACAAGCCCTCTAACCCCTCTTCCCATGAGGTGGTAGCCTGGATTCGACGGATACTTCGGGTGGAGAAGACAGGGCACAGTGGTACTCTGGATCCCAAGGTGACTGGTTGTTTAATCGTGTGCATAGAACGAGCCACTCGCTTGGTGAAG", "modifications": "expressed from pLNCX plasmid; CDS (1)..(165) Sequence GSE 24.2"}}, "key": {"JNK": {"test_system": "JNK", "assay": "Activation of JNK by cisplatin in 293T cell lines (Western blot)", "type": "cell-based, human", "settings": "293T cells stably expressing GSE 24.2 vs pLNCX; cisplatin 6 hours", "experimental": "FIG. 2.—Cell viability and activation of the JNK and p38 death pathways in 293T cell lines: pLNCX and 24.2, treated with cisplatin. A) Cell viability. After seeding the 293T cells: expressing the empty vector (pLNCX) and GSE 24.2 (24.2) in 24-well plates, they were incubated with concentrations between 0-100 μg/ml of cisplatin. The cell viability was measured by means of the crystal violet technique after 72 hours of exposure to the drug. The data represent the mean of two experiments performed in quadruplicate. B) Activation kinetics. Subsequently, the activation of JNK and p38 was studied using antibodies that specifically recognise the active forms. As a load control, the levels of JNK-1 were detected.\nThe pLNCX24-2 plasmid containing GSE of the same name was transfected in a stable manner in the 293T cells and, as a control, the pLNCX empty vector was transfected. After verifying, by means of PCR, that the 24.2 cell line contained this insert (data not shown), the response to cisplatin was studied, creating a viability curve with this drug. […] JNK and p38 are MAPKs that are activated in response to genotoxic agents (Sanchez-Perez et al., 1998).\nWestern Blot and antibodies. 20 μg of protein were separated in SDS-polyacrylamide gels; subsequently, they were transferred to Immobilon-P membranes (Millipore) by humid transfer. […]"}, "hTERT": {"test_system": "hTERT", "assay": "RT-PCR of hTERT in cells of patients with dyskeratosis congenita", "type": "cell-based, human", "settings": "RT-PCR 24 hours after transfection", "experimental": "FIG. 10.—Telomerase activity and expression levels of hTERT and hTR in the cells of patients with dyskeratosis congenita and in VA13 cells transiently transfected with the 24.2 plasmid or the pLNCX empty vector. A) Telomerase activity measured by means of the TRAP assay in the cells of patients with dyskeratosis congenita (DC-1, DC-2 and DC-3) and in the carrier parent (DC-C) following electroporation of 45 μg of the pLNCX empty plasmid (−) or the pLNCX 24.2 vector (+) by 15 million cells. B) RT-PCR of the RNA from cells of one of the patients with dyskeratosis congenita, DC3 transfected with the empty vector and DC3 transfected with the 24.2 plasmid, using oligos specific for hTERT and hTR. As a starting RNA control, oligos for the amplification of GAPDH were used. C) Telomerase activity in VA13 cells. The cells were transiently transfected with 16 μg of the control pLNCX empty vector, expressing DKC or the GSE 24.2 peptide per million cells. 24 hours later, the telomerase activity was analysed as described above, using dilutions of the protein extracts from each transfection. D) The expression levels of hTERT and hTR in VA13 cells transfected with 16 μg of the different construct per million cells. RNA levels were detected as described above. GAPDH was used as a control. […] After 24 h of transfection, the luciferase activity was analyzed as described above. […]"}}, "data": [{"molecule": "B1", "values": [{"measurement": "dose of cisplatin required to activate JNK", "setting": "JNK", "value": "a greater dose of cisplatin is required to activate both kinases"}, {"measurement": "hTERT expression levels in dyskeratosis congenita cells", "setting": "hTERT", "value": "an increase in the expression levels was observed"}]}]}
